Results from US20050042213.

How the values were obtained:
[1] = tested on: T1, pro-heparanase (H60), purified recombinant human 60 kDa latent heparanase
T1 sequence: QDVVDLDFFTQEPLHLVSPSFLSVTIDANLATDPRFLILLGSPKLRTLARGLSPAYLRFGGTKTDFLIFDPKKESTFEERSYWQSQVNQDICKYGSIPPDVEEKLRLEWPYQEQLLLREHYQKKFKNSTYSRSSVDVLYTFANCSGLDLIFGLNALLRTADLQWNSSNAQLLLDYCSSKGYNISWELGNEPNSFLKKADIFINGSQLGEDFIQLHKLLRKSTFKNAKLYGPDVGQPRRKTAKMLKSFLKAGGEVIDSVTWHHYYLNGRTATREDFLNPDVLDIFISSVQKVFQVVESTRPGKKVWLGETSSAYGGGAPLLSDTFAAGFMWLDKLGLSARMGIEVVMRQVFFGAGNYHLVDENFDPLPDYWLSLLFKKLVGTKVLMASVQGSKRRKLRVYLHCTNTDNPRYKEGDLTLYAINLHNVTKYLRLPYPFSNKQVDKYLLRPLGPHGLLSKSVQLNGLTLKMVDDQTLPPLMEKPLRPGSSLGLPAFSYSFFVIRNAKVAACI

[2] = tested on: T2, Z-Pro-Lys-Lys-Glu-AMC (Peptide 1)
T2 sequence: PKKE

Z-Arg-Arg-AMC = tested on: T3, Z-Arg-Arg-AMC
T3 sequence: RR

| Substance | heparanase activity after treatment (DMB assay) [1] | processing of pro-heparanase in vitro (Western blot) [1] | Activity (δfluorescence) (δfluorescence) [2] | Activity (δfluorescence) (δfluorescence) (Z-Arg-Arg-AMC) |
| --- | --- | --- | --- | --- |
| Cathepsin B | Cathepsin B did not activate the pro-heparanase | Cathepsin B in the presence of heparin but not when the cathepsin B inhibitor CA074 was added, also processed the pro-heparanase | 8930 | 53300 |
| Cathepsin D | Cathepsin D treatment caused an increase in heparanase activity and pepstatin A inhibited this activation | When heparin was included in the reaction mixture, heparanase was processed by cathepsin D and a 45 kDa polypeptide was detected | – | – |
| Cathepsin L | – | – | 0 | – |
